Patent US20160108110A1 (Novartis, published 2016)
Blank lines part the entries; values can stand above or below the binder they belong to.

Tests used:
[1] = target: T1, Human ANGPTL4(26-406)-FLAG-His6-Avi (human, UniProt Q9BY76 24-406, biotin on the C-terminal Avi tag in the biotinylated preparations (immobilised form in SET, ELISA and Octet)); assay: ForteBio Octet, biotinylated antigen on streptavidin sensor, antibody in solution
T1 construct: also called full-length human ANGPTL4; hANGPTL4
T1 sequence: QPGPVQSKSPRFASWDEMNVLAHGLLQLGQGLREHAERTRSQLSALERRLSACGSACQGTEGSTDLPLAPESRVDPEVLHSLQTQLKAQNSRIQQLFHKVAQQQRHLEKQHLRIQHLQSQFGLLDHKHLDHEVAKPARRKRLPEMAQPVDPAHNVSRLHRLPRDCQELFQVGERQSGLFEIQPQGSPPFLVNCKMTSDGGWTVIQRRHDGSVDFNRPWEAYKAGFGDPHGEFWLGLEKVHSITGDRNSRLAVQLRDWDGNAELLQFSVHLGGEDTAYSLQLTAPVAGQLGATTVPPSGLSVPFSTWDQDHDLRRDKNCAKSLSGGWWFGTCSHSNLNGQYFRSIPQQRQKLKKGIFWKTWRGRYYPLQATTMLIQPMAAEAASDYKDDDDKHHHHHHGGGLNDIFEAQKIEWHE
Experimental: Dissociation constants (KD) were determined for selected antibodies of the invention by using an Octet (ForteBio) kinetic binding assay. ForteBio 10× Kinetics Buffer (ForteBio, catalog number 18-5032) was diluted 10-fold with DPBS (Life Technologies, catalog number 14190-136), and the resulting solution was added (0.2 ml per well) to a 96-well plate (Greiner, catalog number 65520). Streptavidin sensors (ForteBio, catalog number 18-5020) were immersed in the solution and equilibrated for at least 10 min at room temperature. In a second 96-well plate (Greiner, catalog number 65520), sensors were washed in 1× Kinetics buffer, and then immersed in 200 ul of 25 nM biotinylated human ANGPTL4 or a biotinylated reference protein (for background substraction) for 1000 sec […] at room temperature. The sensors were then washed in 1× Kinetics buffer for 120 sec, and immersed in 200 ul of ANGPTL4 antibody diluted in 1× Kinetics buffer at various concentrations (serial 2-fold dilutions ranging from 25 nM to 0.4 nM), and antibody association was monitored for 480 seconds. The sensors were then transferred to a well containing 200 ul 1× Kinetics buffer, and antibody dissociation was monitored for 1200 seconds. Background-corrected association and dissociation curves were globally fitted by Octet Software (ForteBio) to generate association (kₒₙ) and dissociation (koff) rate constants, which in turn were used to calculate equilibrium dissociation constants (KD).

[2] = target: T1, Human ANGPTL4(26-406)-FLAG-His6-Avi; assay: cell-based or functional assay
[3] = target: T1, Human ANGPTL4(26-406)-FLAG-His6-Avi; assay: cell-based or functional assay; remark: listed apart in the source
[4] = target: T2, ANGPTL4-derived peptide P19 (human); assay: peptide array, immobilised linear 15-mers
T2 construct: printed with S where human ANGPTL4 has C
T2 peptide: SQGTEGSTDLPLAPE
Experimental: (§1) The ability of selected antibodies of invention, namely MOR022765 and MOR022770, to bind to linear 15-amino-acid peptides derived from the N-terminal coiled coil domain of human ANGPTL4 was tested. The peptides were immobilized on a glass surface, and the ability of MOR022765 and MOR022770 to bind to the immobilized peptides was evaluated using experimental methods optimized for linear peptide epitope mapping at JPT Peptide Technologies (Berlin, Germany).

[5] = target: T3, ANGPTL4-derived peptide P38 (human); assay: peptide array, immobilised linear 15-mers
T3 peptide: IQHLQSQFGLLDHKH
Experimental: as §1

[6] = target: T4, ANGPTL4-derived peptide P21 (human); assay: peptide array, immobilised linear 15-mers
T4 peptide: STDLPLAPESRVDPE
Experimental: as §1

[7] = target: T5, ANGPTL4-derived peptide P1 (human); assay: peptide array, immobilised linear 15-mers
T5 construct: linear 15-amino-acid peptide derived from the N-terminal coiled coil domain of human ANGPTL4
T5 peptide: GPVQSKSPRFASWDE
Experimental: as §1

[8] = target: T6, ANGPTL4-derived peptide P41 (human); assay: peptide array, immobilised linear 15-mers
T6 peptide: LLDHKHLDHEVAKPA
Experimental: as §1

[9] = target: T7, ANGPTL4-derived peptide P39 (human); assay: peptide array, immobilised linear 15-mers
T7 peptide: LQSQFGLLDHKHLDH
Experimental: as §1

[10] = target: T8, ANGPTL4-derived peptide P32 (human); assay: peptide array, immobilised linear 15-mers
T8 peptide: LFHKVAQQQRHLEKQ
Experimental: as §1

[11] = target: T9, ANGPTL4-derived peptide P8 (human); assay: peptide array, immobilised linear 15-mers
T9 peptide: GLLQLGQGLREHAER
Experimental: as §1

[12] = target: T10, ANGPTL4-derived peptide P7 (human); assay: peptide array, immobilised linear 15-mers
T10 peptide: LAHGLLQLGQGLREH
Experimental: as §1

[13] = target: T11, ANGPTL4-derived peptide P28 (human); assay: peptide array, immobilised linear 15-mers
T11 peptide: TQLKAQNSRIQQLFH
Experimental: as §1

[14] = target: T12, ANGPTL4-derived peptide P10 (human); assay: peptide array, immobilised linear 15-mers
T12 peptide: QGLREHAERTRSQLS
Experimental: as §1

[15] = target: T13, ANGPTL4-derived peptide P11 (human); assay: peptide array, immobilised linear 15-mers
T13 peptide: REHAERTRSQLSALE
Experimental: as §1

[16] = target: T14, ANGPTL4-derived peptide P2 (human); assay: peptide array, immobilised linear 15-mers
T14 peptide: QSKSPRFASWDEMNV
Experimental: as §1

[17] = target: T15, ANGPTL4-derived peptide P42 (human); assay: peptide array, immobilised linear 15-mers
T15 peptide: HKHLDHEVAKPARRK
Experimental: as §1

[18] = target: T16, ANGPTL4-derived peptide P5 (human); assay: peptide array, immobilised linear 15-mers
T16 peptide: WDEMNVLAHGLLQLG
Experimental: as §1

[19] = target: T17, ANGPTL4-derived peptide P13 (human); assay: peptide array, immobilised linear 15-mers
T17 construct: printed with S where human ANGPTL4 has C
T17 peptide: TRSQLSALERRLSAS
Experimental: as §1

[20] = target: T18, ANGPTL4-derived peptide P36 (human); assay: peptide array, immobilised linear 15-mers
T18 peptide: EKQHLRIQHLQSQFG
Experimental: as §1

[21] = target: T19, ANGPTL4-derived peptide P26 (human); assay: peptide array, immobilised linear 15-mers
T19 peptide: VLHSLQTQLKAQNSR
Experimental: as §1

[22] = target: T20, ANGPTL4-derived peptide P16 (human); assay: peptide array, immobilised linear 15-mers
T20 construct: printed with S where human ANGPTL4 has C
T20 peptide: RRLSASGSASQGTEG
Experimental: as §1

- Kd [1]: 0.184 nM
- koff [1]: 6.5e-05 s⁻¹
- kon [1]: 250000 M⁻¹ s⁻¹
- Reversal of human ANGPTL4 inhibition of human LPL EC50 [2]: 1 nM
B1: MOR021792 (antibody, human IgG1, lambda, V domains shown)
VH: QVQLLESGGGLVQPGGSLRLSCAASGFTFSDYAMDWVRQAPGKGLEWVSKISYDGSYTYYADSVKGRFTISRDNSKNTLYLQMNSLRAEDTAVYYCARPSMSYYIIPAGFDVWGQGTLVTVSS
VL: DIELTQPPSVSVSPGQTASITCSGDALGVKRASWYQQKPGQAPVLVIYKDNNRPSGIPERFSGSNSGNTATLTISGTQAEDEADYYCSVRTWSMNLYVFGGGTKLTVLG

- EC50 (read off the curve) [1(C] [3]: ~3 nM
- Kd [1]: 0.444 nM
- koff [1]: 9.9e-05 s⁻¹
- kon [1]: 220000 M⁻¹ s⁻¹
- Reversal of human ANGPTL4 inhibition of human LPL EC50 [2]: 2 nM
B2: MOR021798 (antibody, human IgG1, lambda, V domains shown)
VH: QVQLLESGGGLVQPGGSLRLSCAASGFTFSDYALHWVRQAPGKGLEWVSRISYMGSSTYYADSVKGRFTISRDNSKNTLYLQMNSLRAEDTAVYYCAREHYYSSPMGGVAVDNWGQGTLVTVSS
VL: DIVLTQPPSVSGAPGQRVTISCSGSSSNIGYNTVSWYQQLPGTAPKLLIYSNNIRPSGVPDRFSGSKSGTSASLAITGLQAEDEADYYCSSWDFLIKSLVFGGGTKLTVLG
notes: human IgG1

- binding result [4]: no binding
- binding result [5]: no binding
- binding result [6]: no binding
- binding result [7]: no binding
- binding result [8]: no binding
- binding result [9]: no binding
- binding result [10]: no binding
- binding result [11]: no binding
- binding result [12]: no binding
- binding result [13]: no binding
- binding result [14]: no binding
- binding result [15]: no binding
- binding result [16]: no binding
- binding result [17]: no binding
- binding result [18]: no binding
- binding result [19]: no binding
- binding result [20]: no binding
- binding result [21]: no binding
- binding result [22]: no binding
B3: MOR022765 (antibody, human IgG1, lambda, V domains shown)
VH: EVQLVQSGAEVKKPGESLKISCKGSGYSFSTYWISWVRQMPGKGLEWMGIIDPSSSDTRYSPSFQGQVTISADKSISTAYLQWSSLKASDTAMYYCARVYGYVYMDVWGQGTLVTVSS
VL: SYELTQPLSVSVALGQTARITCSGDNLGKKYAYWYQQKPGQAPVLVIYDKTKRPSGIPERFSGSNSGNTATLTISRAQAGDEADYYCASYDWYSSSYVFGGGTKLTVLG
notes: human IgG1
